For this assay, the target named is coxsackievirus B5 Faulkner strain, purified virus (wild type) (coxsackievirus B5 (CV-B5/Faulkner)). As to the kind of experiment: SPR.

B1: decay accelerating factor (DAF) protein with tag (receptor)
chain: DCGLPPDVPNAQPALEGRTSFPEDTVITYKCEESFVKIPGEKDSVICLKGSQWSDIEEFCNRSCEVPTRLNSASLKQPYITQNYFPVGTVVEYECRPGYRREPSLSPKLTCLQNLKWSTAVEFCKKKSCPNPGEIRNGQIDVPGGILFGATISFSCNTGYKLFGSTSSFCLISGSSVQWSDPLPECREIYCPAPPQIDNGIIQGERDHYGYRQSVTYACNKGFTMIGEHSIYCTVNNDEGEWSGPPPECRGKSLTSKVPPTVQKPTTVNVPTTEVSPTSQKTTTKTTTPNAQATRSTPVSRTTKHFHETTPNKGSGTTS
By Kd is commonly meant a measure of binding affinity in units of concentration. B1 came in with a Kd of 5.69 nM.

These data come from article PMC12861664 (2025).
